This is an account of results in US20120316071A1.

The target of experiment [1] is rHuman CD44/Fc Chimera, CF (R&D Systems Cat#3660-CD) (human) (UniProt P16070). In words: ECL multispot (MSD) assay, antigen spotted on plate, 20 nM Fab.
Experiment [2] deals with rHuman EGF R/Fc Chimera, CF (R&D Systems Cat#344-ER) (human) (UniProt P00533). The description is as above.
Experiment [3] addresses rHuman IGF-1 sR, CF (R&D Systems Cat#391-GR) (human) (UniProt P08069). The experiment is described as above.
The target of experiment [4] is rHuman Notch-1/Fc Chimera, CF (R&D Systems Cat#3647-TK) (human) (UniProt P46531). Described as above.
For experiment [5], the target named is rHuman Erythropoietin R/Fc Chimera, CF (R&D Systems Cat#963-ER) (human) (UniProt P19235). In words: ECL multispot (MSD) binding assay, antigens spotted on plate, 20 nM Fab.
Experiment [6] deals with rHuman P-Cadherin/Fc Chimera, CF (R&D Systems Cat#861-PC) (human) (UniProt P22223). The description is as above.
Experiment [7] has as its target rHuman EGF R/Fc Chimera, CF (R&D Systems Cat#344-ER) (human) (UniProt P00533). The experiment is described as follows: ECL (MSD) multispot binding assay, antigen spotted on plate, 20 nM Fab.
Experiment [8] deals with rHuman Notch-1/Fc Chimera, CF (R&D Systems Cat#3647-TK) (human) (UniProt P46531). The experiment is described as above.
In experiment [9] the target is rHuman ErbB2/Fc Chimera, CF (R&D Systems Cat#1129-ER) (human) (UniProt P04626). Described as above.
Experiment [10] addresses rHuman Erythropoietin R/Fc Chimera, CF (R&D Systems Cat#963-ER) (human) (UniProt P19235). In words: Multispot ECL (MSD) assay, antigen spotted on plate, Fab at 42.112 nM; blank spot 323.
Experiment [11] shares this target. In words: Multispot ECL (MSD) assay, antigen spotted on plate, Fab at 421.12 nM; blank spot 639.
For experiment [12], the target named is Recombinant Human DLL4 (R&D Systems Cat#1506-D4/CF) (human) (UniProt Q9NR61). In words: Multispot ECL (MSD), antigen spotted on plate, Fab 12 nM; blank spot 573.
In experiment [13] the target is rHuman ErbB2/Fc Chimera, CF (R&D Systems Cat#1129-ER) (human) (UniProt P04626). The experiment is described as above.
The target of experiment [14] is rHuman HGF R/c-MET/Fc Chimera, CF (R&D Systems Cat#358-MT/CF) (human) (UniProt P08581). Described as above.
For experiment [15], the target named is rHuman Notch-1/Fc Chimera, CF (R&D Systems Cat#3647-TK) (human) (UniProt P46531). The experiment is described as above.
Experiment [16] addresses Recombinant Human DLL4 (R&D Systems Cat#1506-D4/CF) (human) (UniProt Q9NR61). In words: Multispot ECL (MSD), antigen spotted on plate, Fab 1.2 nM; blank spot 227.
Experiment [17] concerns the target rHuman ErbB2/Fc Chimera, CF (R&D Systems Cat#1129-ER) (human) (UniProt P04626). The experiment is described as above.
In experiment [18] the target is rHuman HGF R/c-MET/Fc Chimera, CF (R&D Systems Cat#358-MT/CF) (human) (UniProt P08581). The experiment is described as above.
The target in experiment [19] is rHuman Notch-1/Fc Chimera, CF (R&D Systems Cat#3647-TK) (human) (UniProt P46531). Described as above.
For experiment [20], the target named is Recombinant Human DLL4 (R&D Systems Cat#1506-D4/CF) (human) (UniProt Q9NR61). In words: Multispot ECL (MSD), antigen spotted on plate, Fab 0.12 nM; blank spot 264.
In experiment [21] the target is rHuman ErbB2/Fc Chimera, CF (R&D Systems Cat#1129-ER) (human) (UniProt P04626). The description is as above.
For experiment [22], the target named is rHuman HGF R/c-MET/Fc Chimera, CF (R&D Systems Cat#358-MT/CF) (human) (UniProt P08581). Described as above.
The target in experiment [23] is rHuman Notch-1/Fc Chimera, CF (R&D Systems Cat#3647-TK) (human) (UniProt P46531). Described as above.
The target in experiment [24] is Recombinant Human DLL4 (R&D Systems Cat#1506-D4/CF) (human) (UniProt Q9NR61). The experiment is described as follows: Multispot ECL (MSD), antigen spotted on plate, Fab 120 nM; blank spot 6749.
Experiment [25] has as its target rHuman ErbB2/Fc Chimera, CF (R&D Systems Cat#1129-ER) (human) (UniProt P04626). The experiment is described as above.
Experiment [26] deals with rHuman HGF R/c-MET/Fc Chimera, CF (R&D Systems Cat#358-MT/CF) (human) (UniProt P08581). The experiment is described as above.
Experiment [27] addresses rHuman Notch-1/Fc Chimera, CF (R&D Systems Cat#3647-TK) (human) (UniProt P46531). The experiment is described as above.
Experiment [28] addresses Recombinant Human DLL4 (R&D Systems Cat#1506-D4/CF) (human) (UniProt Q9NR61). In words: ECL (MSD) multispot binding assay, antigen spotted on plate, Fab in solution.
Experiment [29] shares this target. In words: ECL multispot (MSD), antigen spotted, Fab in solution.
The target in experiment [30] is rHuman CD44/Fc Chimera, CF (R&D Systems Cat#3660-CD) (human) (UniProt P16070). The experiment is described as above.
Experiment [31] has as its target rHuman EGF R/Fc Chimera, CF (R&D Systems Cat#344-ER) (human) (UniProt P00533). The experiment is described as above.
In experiment [32] the target is rHuman Erythropoietin R/Fc Chimera, CF (R&D Systems Cat#963-ER) (human) (UniProt P19235). The description is as above.
Experiment [33] concerns the target rHuman HGF R/c-MET/Fc Chimera, CF (R&D Systems Cat#358-MT/CF) (human) (UniProt P08581). The description is as above.
For experiment [34], the target named is rHuman IGF-1 sR, CF (R&D Systems Cat#391-GR) (human) (UniProt P08069). The description is as above.
Experiment [35] concerns the target rHuman Notch-1/Fc Chimera, CF (R&D Systems Cat#3647-TK) (human) (UniProt P46531). The description is as above.
The target of experiment [36] is rHuman P-Cadherin/Fc Chimera, CF (R&D Systems Cat#861-PC) (human) (UniProt P22223). Described as above.
Experiment [37] concerns the target rHuman IGF-1 sR, (IGF-1 sR), CF (R&D Systems Cat#391-GR) (human) (UniProt P08069). The experiment is described as follows: Multispot ECL (MSD), antigen spotted on plate, Fab […]; blank spot 359.
For experiment [38] the target is unchanged. The experiment is described as follows: Multispot ECL (MSD), antigen spotted on plate, Fab […]; blank spot 376.
Experiment [39] has the same target. The experiment is described as follows: Multispot ECL (MSD), antigen spotted on plate, Fab 210 nM; blank spot 833.
Experiment [40] shares this target. In words: Multispot ECL (MSD), antigen spotted on plate, Fab 52.5 nM; blank spot 467.

“Fab VH3-23_IGHD2-21*01>3_IGHJ6*01 H100E/S108P K65A & V2-13_IGLJ2*01”: the ECL signal/blank ratio (read-out not given) in experiment [1] was determined as 1.7; in experiment [2], 7.1; in experiment [3], 1.4; in [4], 3.

As to “Fab VH3-23_IGHD2-21*01>3_IGHJ6*01 H100E/S108P/Y113G Y110H & V2-13_IGLJ2*01”, the ECL multispot signal (ratio to blank; column not labelled) stood at 3.7 in experiment [5] and 2.9 in [6].

In [7], “Fab VH3-23_IGHD2-21*01>3_IGHJ6*01 H100E/S108P/Y113G Y112R & V2-13_IGLJ2*01” showed an ECL multispot value of 3.7.

As to “Fab VH3-23_IGHD2-21*01>3_IGHJ6*01 H100E/S108P/Y113G Y114E & V2-13_IGLJ2*01”, the ECL multispot value in experiment [8] was determined as 3.3.

The substance “Fab VH3-23_IGHD2-21*01>3_IGHJ6*01 H100E/S108P/Y113G Y114H & V2-13_IGLJ2*01” had an ECL multispot value in [8] of 3.3.

In [9], “Fab VH3-23_IGHD2-21*01>3_IGHJ6*01 H100E/S108P/Y113G Y114N & V2-13_IGLJ2*01” returned an ECL multispot value of 3.5.

For the substance “Fab VH3-23_IGHD2-21*01>3_IGHJ6*01 H100E/S108P/Y113G/Y111H & V2-13_IGLJ2*01”, the ECL signal/blank ratio in [7] worked out at 2.9; in experiment [9], 3.

“Fab VH3-23_IGHD3-10*01>1′_IGHJ3*01 & O12_IGKJ1*01”: the results for the ECL signal in experiment [10] and in experiment [11] were 759 and 1300, respectively.

“Fab VH3-23_IGHD3-10*01>3_IGHJ6*01 & O12_IGKJ1*01”: the ECL signal is 2510 in experiment [12]; 4360 in experiment [13]; 2700 in experiment [14]; 2580 in experiment [15]; 319 in experiment [16]; 677 in experiment [17]. For the same substance, the ECL signal is 412 in experiment [18]; 660 in [19]; 210 in [20]; 287 in experiment [21]; 287 in experiment [22]; 218 in experiment [23]. The ECL signal amounted to 20600 in [24], 17300 in experiment [25], 15900 in experiment [26] and 14400 in experiment [27].

Regarding “Fab VH3-23_IGHD3-10*01>3_IGHJ6*01 R104A & O12_IGKJ1*01”, the ECL multispot value (looks like signal/blank ratio; not labelled) in experiment [28] was found to be 2.7.

For “Fab VH3-23_IGHD3-10*01>3_IGHJ6*01 Y112Q & O12_IGKJ1*01”, the ECL signal/blank ratio in [29] amounted to 1.8; in experiment [30] it was 1.4; in experiment [31] it was 1.2; in [32], 2.4; in [33], 1.4; in [34] it was 1.6. Further, the ECL signal/blank ratio is 1.7 in [35] and 3 in [36].

As for “Fab VH3-23_IGHD3-10*01>3_IGHJ6*01 Y115G & O12_IGKJ1*01”, the ECL multispot value (looks like signal/blank ratio; not labelled) in experiment [28] was found to be 2.7.

Turning to “Fab VH4-31_IGHD2-15*01_IGHJ2*01 & V1-4_IGLJ4*01”, in experiment [37], the ECL signal at 3.3 nM Fab came to 743. The substance further returned an ECL signal at 13.1 nM Fab in experiment [38] of 814. Moreover, the ECL signal at 210 nM Fab in [39] was 1430. The substance also returned an ECL signal at 52.5 nM Fab in experiment [40] of 911.
